Results: the domain aggregation screens of Martell et al. (2025)

assay: soluble fraction after stress (log2 fold change); higher = more stays soluble; pooled small domains, quantitative proteomics; details: stress: 50 degC
Method in brief: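 Custom libraries of small protein domains were pooled and measured in a high-throughput format, with quantitative proteomics as the read-out. Each library was stressed at 50°C. The value is the log2 fold change in the amount of each protein that stays soluble after stress, used as a measure of aggregation propensity; higher values mean more of the protein stays soluble.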

Sequence | soluble fraction (log2)
HMQDIDIVDLKRISELIYQKYNYDFRNYAMSSFKRRVQRIIELKKLTVDGLIKRLNDTPSFINEFLDELTV | -0.139
HMGGKWKLRILWHIHHGDTRFSTLKRGIPEISEKILAQQLRELEEHQLIKRRVVTVMPPHVVYEL | -2.28
HMDVKQSAAGVAGRIRFELNRTLTGQGHEKFTSASQAIGPRPAAELARRLFNSGSVVGVHVFANIVTVDLL | -0.051
HMQRLSRREIEVLHWIAEGKSDWQIGQILSISAKTVNYHTENLKRKFGVATRMQAVVSAIKQGAFVPGE | -4.43
HMRPRWTEQEVERAKAIKMIYPNAYRLESSDVFVQVWSKEEILLAHVEVDMFPSLRPGQPVELDEIIG | 0.103
HMSHANAALTPRARLRLAKLIVEEHWPVATAAKMFMVSPPTARKWATRFRAEGPAGMADRSSRP | -1.46
HMGFLTGNTQGEVNRKTKNQMVNIFLPTTPNPTSGFLLFVPKKDILRLTMTVEEGIKMIISAGMLTPS | -0.173
HMSAPNPGQMHSWTDTQGRTLQATFIKADATTVTLNWNGRIVPIPLANLNAASQKLARELASAS | 0.181
HMGTKVGAPLPGTITEVKVKVGDTVKAGDAVIILEAMKMQNNIEAEVSGTVSSVLVKEGDTVMEGDALITI | 0.144
HMAKIKVFELKNQINSLIKNKIESKDIIDFIETNFGVKKSHSSALEENEANFIKNYFVHADKA | 0.195
HMGFTDREREIIRNDLVATGRELFGTFGLKKTSIEDLTKAVGIAQGSFYTFFNSKEELYLEVMDREGEA | -0.851
HMSAIEIDAEKILNYLTDRGGKMPYGDTTAPEVIKDKFNISKAAFKRALGFLLRSNKIEQIDGWTYI | -0.317
HMDSAQLARWAATILAQNGRKITPSTMNLFLERVGDDMENIRMELEKLISYTMGSEVVTAEDVKVITTVQ | -0.569
HMNSFGWESLIDKEGIADTDLHPSGWVRIDDRRIFVVSEGDFIDKGSGVTVLSVDGNRVVVRELI | -0.836
HMAQILEPSVALKKLLELKQAGFEDETLVGWIRKVEFTRPLTPDDLLEWKGAGISQAVIRAAM | -0.0938
HMAGSGLPVPRFVSLADDRVNARAGPGFRFPINWVYLRKGFPVEVVDEFGPWRRIRDIDGVAAWIHLSMLS | -0.85
HMDIVKVYTTARAGETLASVAKRTGVDVARLAQWNDIPLKRAKQKLKTGKALALWVQREHASAYSNAPP | -0.151
HMASVGTHIKRLRAAKRMTQEELAEQLHVTRQAVSAWETGKALPDVEMLERIAAALDADVTEVIYGA | 0.0402
HMGIKDRIVYIMEKEKLSIPLFAKKIGIGPSTLLHIIRGKNAPSLQVVQAIHKAYPDIDLNWLI | -1.08
HMNQGKLIEMLQEMKEIAHSQNNYLTKNEIANYLGDTVLSKEQLQAVYHYLGENHIEVEGYVYIP | 0.035
HMDDSPTARALRTLDLIHNRPGITAAELADRLGVTERAVRRYVLTLRDAGVPVLGTPGRYGGYQVGK | -0.426
HMQMMDATLKIPPSMGKLRGTLYELNSVTSEDVDENGQLALHVRLSSVDWQRLKKRFDSNLDELIVQKN | -0.0668
HMRSGFAFSEEEIKHLDNIVSPLLIKGQSIHHISIFHKDEVMMSERTLYSYVNNGLFSARNIDMPRTVRMR | 0.14
HMTGQVASMVERLAQRLKDQPQDAEGWAMLARSYSVLGRHPEALQAYEKALALRKDDANLLADYADSLA | -0.087
HMNPNFIEVSHGRLRVNVPLSAYEGTTYHIKPEEAEKLKRTLASRYPWLTPNALKVFIEEAEQAMRERIQ | -0.29

Sequence | soluble fraction (log2)
HMLLNTSQLKELYNRYDKKNSSLISIPFSAISDEPLKFYKWYAALFQIELNVKAFADVDSKQIIIYKGTK | -2.51
HMPELFLFNPDTASAATFQALGFSARQAGVLIHFREALGGRFGSVEQFSKSYVVDSATLERLRPYMVF | -3.63
HMITQQEFQQKLEALLSRAEAESFHIKKEEAESFFSGDELTGEQMKLVFDYLLSKKIIVEGYLK | -0.0863
HMLPPVFLTIDANENVIVRKDGEPVQTLNKFELGAFARSQAENSAEQPVVLAADKSIKYEVVMEVI | 0.0698
HMNKDWQDEVALQRYTMITPLLSEDLDNAKRIAMREKIAQDNLTTARSLYRYEKAYRENGFQGLRPTD | -0.146
HMNPLSELSFEERRELFLEAAVRLFEEKGYKNTSVEDIAGELGFTKKVFYYYWKNKREIVQEIHDRGMA | -0.479
HMLDDDAGMIQAILRKAPGHYLPLHDKSDPASIQAQLGISKAQFKRAVGTLMKQGLIRQVKGDGLYLTQ | 0.0324
HMDSSLVWVDYLLGSKLTKLNSSNELTGPGASAKTIGAFLGENKQSFDLYIESVHNARDTYSDILTHGT | -0.0043
HMRRRVIGTLVMGDMSTDFKVLADGHTHRVLAAAISFHKAKPGDEVVILVPKSAPSKWAAVEHVMK | 0.458
HMLSRKEVFTVSQKDIEKNPIGAADKFFDGHVGIHKLLVVDEEDRLRGLFTLSDIERINDEQ | 0.0269
HMDLIISDIRMPEMRGDDFLEWIKANELFKHIPVIMLSSEDSTTERIRLLEIGAEDYIVKPFNPMELKIR | -0.505
HMDWNPVRDITAHQVLAILQATHIRAPTVAAEAKRTLSSIFQFAVATLRADIDPVWPVRNALPKNKT | 0.00605
HMIIDPQIRTLWTSQIIDILKSNPKRSIRSILELYPSNKESWVLIILQELIGEEKIIRDLDYLYFNK | -2.22
HMQDSIYYAQYRINIRNMPSSEGMVISRASVGEALEVLDWQEQWSKVRKQSGVEGYVASRLLTK | -1.24
HMFYPIAHTLTKLNIRSGPGEQYQKLATFENNHDLVVLTQQNEWVQVRGKSDEQVIIGWVHSSFLSPT | -1.09
HMSGQKDVPDLYGMTVKQAKKEVEAAGFKLKEGKEVYSNDYSKGQIAEQDPESGSKAKKGSSITVHVSKG | 0.0677
HMGPEAFPVPYIVDIELDRAIYVIEQSGFIVGQKLEANDDNVPRGFVISQNPAAGTKLGPNSVVDLVISSG | -1.02
HMDGLDFIINENGKIANINEEGELLAKGENIMLGYYKDSISTNNTINNGWLHTGDIAKIDNDGFIYL | 0.0618
HMTFAEADAQYEVIKQQYLAGALDEEQFDEQLHRLMVLDDGGLWWAKSRENGSWHYYDPDREDWIAATP | -0.355
HMKQNSDDGEIRKIIIEILDNNLDNVNKYKSGRTNVLDFFVGQVMKQTRGQANPELTRSILTEELSN | 0.0594
HMNQSEMIGSRLKEERLQQKLTLKQLSEKVGLSIGYLSQVERGYGTLSLSALKKLSSALGLEMSTFFD | -0.992
HMGVLDFSAQLLKHLEMNGGQTPLGDKSPAEEIYAVFGVSKKVFKKAVGDLYRKRLIEISSNGIRMTS | -0.968
HMKPMNNNDILRRLRYTFDLSDDKMMETFALGGYEANRSEISDWLKKDDHPEQKSLYDKSLSHFLNGFIV | -0.202
HMDESIPVITYKDSVYANPKAFADAHKLPYKSLHNALSKARKEGKVRFMYKQYNFHLDNNGYIVAVS | 0.166
HMDAYMGEAKDEETFAEEYLNDSGLLNEIPESVARYFDIVAYARDLLIGDFSLHDGHVFNMT | -0.0437

Sequence | soluble fraction (log2)
HMLTLTNREKQVLVYIAKGHQVAQIAYELKLSGHTINGYIKTIYQKLHISSRAEAALLAQQYGL | -3.56
HMVDKTMYDRYAVDDYVRVIDGPLVGTEGRIIELDRETGNVKIEAVFFGRVTTADINFALIEKVD | 0.0531
HMSDTMTVTNVKYAIYLRSTPSEASDANIIMEIPVGSKVTYLDTPNNTFYKISYGGTVGYSKQIYLTF | -0.836
HMFAATGTVNTEGSSLRLRAEASTSSSVLKQLSHGTQVDVLSGLVDGWYQVSYKGTTGYVSGEYLTVTE | -0.451
HMFDLENIRLTLARRLNVAAHLRPKYVAGFTLLLKQNFPEQNAEDLLNRLEHNQWLKVNQREIEYSPRLLM | -1.58
HMAGISQGLAENVERRITTLLREQKEVPVHDIDFPGISRETVGQVLHQMVQEEKLLLDDGMISLSPNQ | 0.143
HMKRTFGEISPLPSGRYRARYRGPDGERYPAPVTFLSRMDAETWLSAQARKVSSGDWTPPVGVVA | -0.16
HMNKIENLSQTILNILRKDHSQAFNYKQIAAKLQLDDPSSRNQIVKKLKDLQGKGTIQEIERGKYILTP | 0.358
HMPTSILEKILNSAAEQFTRYGFKTITMDDIARHAGVSKKTLYQHFETKLDIIVAAVTHFHTMKF | -0.718
HMDEPVDRLSPREQEVLALMAEGRSNAAIAHRLSITEKAVAKHINSIFTKLDLPLDEDDHRRVRAVLAWLR | -0.274
HMSNEDAYIKLRNGFLATLSEADLLLFTLREEGKTQKEIADQLGYKTHSAVSKRLQTMRGQFEGYLKTQ | -0.68
HMLLNSLIDTLAAEKATVVPGTEVFKLYDTYGFPWELTEEIASERGFTIDHEGFEAAMKEQRERAREARV | -0.0257
HMQYIINFEYSGMLLREYLRGVLGLSHGTLTALKKDPLGILLNGEHATVRAVLHAGDRLTLALE | -3.05
HMKGYIGESKARNIALKKAPGASITKFEFDKDDGIAVYEVELRKGIYEYELKINAVTGAIIEFEKDIE | -1.46
HMIDLGKSRTWHSENGRAIEARVINISEEQQTVEMQRVDGLKFELSWNQLSKADQTLLAEAAKKTALVA | 0.0711
HMAATSTGFPGVEVRGNSIRVFFMYKRDRHAHTLPLEPTRNNIKHADQLRSAALFALRNGTYNEADFFPHS | -1.53
HMDSPALAIPSSAILRDGLEHIFFRQDPSDPDQVIRVVADLGLSDGRWTVVRSGLERTDQVVLSGA | 0.0102
HMSSFIEAIKQSGTDSLDVIMKNGRVYRYVGIDADRLGYLLEPHQQKLSLEESIGRFYIDYIKGIYEAIE | -1.57
HMGDKVTIPNLIDMKLTDAQNQYKPQGFSIVKNGERESDKEAGTILEQDKAAGTEISGKDIRIFVVVSSGS | -0.00368
HMQVIDNHWRPSRDALDILLRDGISEHFIEDAIPEFILYWRERGTQDSNWNSRFLQHIRLQWARYTNAV | -0.433
HMAMESDELETLVDQLIVDHPDEWSRFVGGDDGDRKKMQGFFTGQIMKATKGQADGRAVAQLLGQKSA | 0.0334
HMQPPLTPRELGVLQWAAEGKTTRDTSAILQIHQRTVEMHLKSAREKLDALNTTHAVARALAHGFILPPS | -0.0855
HMDLEIENYDLREILNLFKLDYNFDNVDLKRAQKIALKTHPDKSNLPKEYFMFFMKAFQIVQQIYYYRY | -0.47
HMILALAISSEEDDARIYATYADRLREAYPASARVFEGMVDEEHEHRRRLIDLFQRRFGDTIPLVRREHV | -0.61
HMSAGISVADVTNRTYDEGYNTLTAQHLLVNKVYEANETIPLDTIIRTDPVAGTKVPDNTSITVYVSSGK | 0.000832
